Results from US10272135B2, “Apolipoprotein O and fragments thereof for inducing apoptosis in a cancerous cell” (INSERM (INSTITUT NATIONAL DE LA SANTÉ ET DE LA RECHERCHE …, priority 2014, dated 2019).

Experiments:
[1] = tested on: mouse heart; experiment: Cardiac specific human ApoO transgenic mice (ApoO-Tg); format: in vivo
Description: After ethical committee approval, all patients in this study gave written consent for sample collection and molecular analysis prior to inclusion. Patients were carefully selected by physicians from the Department of Cardiology, Toulouse University Hospital, prior to coronary by-pass surgery. Bioinformatics. Microarray expression data from human heart samples were downloaded from the GEO repository (GSE1145). This series consisted of 107 myocardial samples collected from patients undergoing cardiac transplantation whose failure arises from different etiologies (e.g. idiopathic dilated cardiomyopathy, ischemic cardiomyopathy, valvular cardiomyopathy, and hypertrophic cardiomyopathy) and from “normal” organ donors whose hearts cannot be used for transplants. Arrays were intensity normalized and hierarchical clustering (average group linkage, Pearson correlation, threshold r=0.8) was applied to identify groups of co-expressed genes. ApoO expression levels were plotted for the 107 human hearts tested and used to define relevant molecular pathways using both Toppgene and Ingenuity Pathway Analysis (Ingenuity systems, Redwood City, Calif., USA). ApoO subcellular localization was predicted using Mitopred, mitoprot and YLoc. Animals: All animal Studies followed the INSERM Institute Animal Facility guidelines and were approved by the animal care committees of the INSERM I2MC UMR 1048. All animal procedures were performed according to the guidelines of the French Ministry of Agriculture. Animals were housed at the Toulouse I2MC animal facility in a room lit 12 h per day (6 AM-6 PM) at an ambient temperature of 22+/−1° C. Construction of ApoO Expression Vectors To overexpress human ApoO (pTT-ApoO), the ApoO coding sequence was amplified using primers hApoO5BamPTT (SEQ ID NO: 2) and hApoO3BamPTT (SEQ ID NO: 3) and cloned into the BamH1 site of pTT expression vector. pSNAP-ApoO was generated by PCR amplification of pTT-ApoO using primers SnapApoEcorV-F (SEQ ID NO: 4) and SnapApoEcorV-R (SEQ ID NO: 5) and cloned into the EcoRV site of pSNAP-Tag® (Ozyme, Saint-Quentin-en-Yvelines, France). pGEX2T-ApoO was constructed by PCR amplification of pTT-ApoO using hApoOpGEX1FBam (SEQ ID NO: 6) and hApoOpGEX1RSma (SEQ ID NO: 7) and cloned into the Bam HI/Sma I site of pGEX2T (Promega, Charbonnières-les-Bains). All primers used in this work were synthesized by Eurogentec France (Angers). All restriction enzymes used were from New England Biolabs (Ozyme, Saint-Quentin-en-Yvelines). All ApoO sequences within the expression vectors were verified by DNA double strand sequencing using ABI PRISM®BigDye™ Terminator version 3.1 Ready reaction cycle sequencing kit (Life Technologies SAS, Villebon sur Yvette) and loaded on an ABI 3130XL DNA sequencing instrument (Life Technologies SAS, Villebon sur Yvette). Cell Culture and Tranfection of H9C2 Cardic Myoblasts H9c2 were obtained from the European Collection of Cell Cultures (Salisbury, England). H9c2 cells were cultured in Dulbecco's modified Eagle medium (Life Technologies SAS, Villebon sur Yvette) adjusted to contain 1.5 g/liter sodium bicarbonate and supplemented with antibiotic-antimycotic solution (Life Technologies SAS, Villebon sur Yvette) and 10% fetal bovine serum (FBS, AbCys s.a., Paris). Cells were plated on 10-cm diameter tissue culture dish and grown in a 5% CO2 incubator at 37° C. with saturating humidity with medium changes every 2 days. H9c2 cardiomyoblasts were stably transfected by electroporation and pools of tranfectants were selected as previously published. Knock-Down of ApoO Overexpression shRNA used to knock-down ApoO gene expression and controls were from MISSION shRNA set; Sh2=TRCN 72707; Sh4=TRCN 72704; Sh5=TRCN 72705 (Sigma Aldrich, Saint-Quentin Fallavier) and used as recommended by generating pools of stable transfectants. Empty vector (no shRNA insert) control was also transfected and had no significant effect. […]

[2] = tested on: fatty acid transporter (CD36 and FATP4); experiment: Real-time PCR of fatty acid transporter expression in cardiac myoblasts; format: cell-based; conditions: ApoO cells vs control (FIG. 6A-B)
Description: After ethical committee approval, all patients in this study gave written consent for sample collection and molecular analysis prior to inclusion. Patients were carefully selected by physicians from the Department of Cardiology, Toulouse University Hospital, prior to coronary by-pass surgery. Bioinformatics. Microarray expression data from human heart samples were downloaded from the GEO repository (GSE1145). This series consisted of 107 myocardial samples collected from patients undergoing cardiac transplantation whose failure arises from different etiologies (e.g. idiopathic dilated cardiomyopathy, ischemic cardiomyopathy, valvular cardiomyopathy, and hypertrophic cardiomyopathy) and from “normal” organ donors whose hearts cannot be used for transplants. Arrays were intensity normalized and hierarchical clustering (average group linkage, Pearson correlation, threshold r=0.8) was applied to identify groups of co-expressed genes. […] All ApoO sequences within the expression vectors were verified by DNA double strand sequencing using ABI PRISM®BigDye™ Terminator version 3.1 Ready reaction cycle sequencing kit (Life Technologies SAS, Villebon sur Yvette) and loaded on an ABI 3130XL DNA sequencing instrument (Life Technologies SAS, Villebon sur Yvette). […]

[3] = tested on: MPTP; experiment: Mitochondrial calcein-cobalt assay of MPTP opening; format: cell-based; conditions: cultured cardiac myoblasts

B1: ApoO: 198-amino acid apolipoprotein, SEQ ID NO: 1; tested by overexpression from expression vectors or transgene (protein, listed as Homo sapiens)
chain: MFKVIQRSVGPASLSLLTFKVYAAPKKDSPPKNSVKVDELSLYSVPEGQSKYVEEARSQLEESISQLRHYCEPYTTWCQETYSQTKPKMQSLVQWGLDSYDYLQNAPPGFFPRLGVIGFAGLIGLLLARGSKIKKLVYPPGFMGLAASLYYPQQAIVFAQVSGERLYDWGLRGYIVIEDLWKENFQKPGNVKNSPGTK
Question: For B1, which “cytochrome C oxidase activity in heart” value ([1]; ApoO-Tg hearts) is on record?
Answer: increase

Question: What about the “diglyceride levels in heart” value ([1]; ApoO-Tg vs WT (FIG. 8a)) of the same molecule?
Answer: increased

Question: And the “intracellular triglycerides in heart” value ([1]; ApoO-Tg vs WT (FIG. 8b))?
Answer: did not significantly modify

Question: And the “Bax expression in heart” value ([1]; ApoO-Tg vs WT (FIG. 9b))?
Answer: enhanced

Question: What about the “Caspase-3 activity in heart” value ([1]; ApoO-Tg vs WT (FIG. 9c)) of the same molecule?
Answer: enhanced

Question: What about the “ACSL activity in heart” value ([1]; hearts from ApoO-Tg mice) of the same molecule?
Answer: significant increase

Question: And the “fatty acid transporter expression in heart” value ([1]; hearts from ApoO-Tg mice)?
Answer: significant increase

Question: And the calcium retention capacity ([1]; mitochondria isolated from ApoO-Tg mice hearts)?
Answer: significantly diminished

Question: And the “fatty acid transporter (CD36 and FATP4) expression” value [2]?
Answer: strongly increased

Question: What about the “kinetics of MPTP opening” value [3] of the same molecule?
Answer: alters the kinetics of MPTP opening
